Source: paper doi:10.1101/723213

Assays:
[1] = target: CENP-A_(144-225)–H4 heterodimer (Drosophila melanogaster), Q9V6Q2; test: SEC-MALS; conditions: remark: other sources report otherwise
[2] = target: CENP-A_(101-225)–H4 heterodimer (Drosophila melanogaster), Q9V6Q2; test: SEC-MALS; conditions: remark: other sources report otherwise
Sequence of CENP-A_(101-225)–H4 heterodimer (Drosophila melanogaster), Q9V6Q2 (Q9V6Q2 101-225, one chain of several): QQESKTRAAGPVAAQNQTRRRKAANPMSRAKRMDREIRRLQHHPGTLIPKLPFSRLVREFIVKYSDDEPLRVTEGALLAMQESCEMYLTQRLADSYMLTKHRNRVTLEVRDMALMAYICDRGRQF

Sequence of CENP-A_(144-225)–H4 heterodimer (Drosophila melanogaster), Q9V6Q2 (Q9V6Q2 144-225, one chain of several): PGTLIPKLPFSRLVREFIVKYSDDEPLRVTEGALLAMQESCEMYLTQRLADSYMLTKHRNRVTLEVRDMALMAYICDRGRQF

stoichiometry N (CAL1 per CENP-A/H4 heterodimer) [1]: 1
stoichiometry N (CAL1 per CENP-A/H4 heterodimer) [2]: 1
B1: His-CAL1_(1-160), Q9VEN2 1-160 (domain or fragment)
chain: MANAVVDEETLEAMVYERSKAWSSKMADFASLEDGMEIDVAEFDNLFHGEDEDPDLDDVAKEAVEDNVPDEAKLEMGHINATSVTELTLILCANEDNEAKAEIEEILNQTVPVVEEHKRKWREAGLDRILDTFDEKQIEHHVGRWMRRHNSVYLEASPPK
